# Data: paper PMC8531669, “Quantitative proteomics identifies the universally conserved ATPase Ola1p as a positive regulator of heat shock response in Saccharomyces cerevisiae” (The Journal of Biological Chemistry, 2021)
# B1: Ola1p (natural protein, S. cerevisiae, UniProt P38219 1-394, looked up)
# chain: MPPKKQVEEKKVLLGRPGNNLKAGIVGLANVGKSTFFQAITRCPLGNPANYPFATIDPEEARVIVPSPRFDKLCEIYKKTASEVPAHLTVYDIAGLTKGASAGEGLGNAFLSHIRSVDSIYQVVRCFDDAEIIHVEGDVDPVRDLEIINQELRLKDIEFAQKALEGAEKIAKRGGQSLEVKQKKEEMDLITKIIKLLESGQRVANHSWTSKEVEIINSMFLLTAKPCIYLINLSERDYIRKKNKHLLRIKEWVDKYSPGDLIIPFSVSLEERLSHMSPEDAEEELKKLQTISALPKIITTMRQKLDLISFFTCGPDEVREWTIRRGTKAPQAAGVIHNDLMNTFILAQVMKCEDVFEYKDDSAIKAAGKLMQKGKDYVVEDGDIIYFRAGAGKN
# notes: Ola1p (Obg-like ATPase 1), S. cerevisiae, systematic name Ybr025c; The methods say that the MBP tag was cleaved with Precision protease; also called Ybr025c; MBP-Ola1p (before cleavage); source: insect cells (baculovirus expression system), purified (amylose resin, size-exclusion chromatography); not shown: MBP, N-terminal, cleaved
# Target: the molecule itself
# Experiment: light scattering coupled to nanoDSF; Ola1p (4 μM in Fig. 3G) in 20 mM PIPES pH 7.0, 100 mM KCl, 1 mM TCEP; temperature ramp 0.5 °C/min from 20 °C to 70 °C; read between 38 and 42 °C
protein,measurement,value
B1,binding result,binds
